Consider five molecules from publication PMC10068899 (Cell Reports, 2023).

Assay [1] has as its target human p110γ, biGBac construct co-expressed with human p84 or human p101 (human, UniProt P48736 1-1102). Kind of assay: HDX-MS.
Assay [2] concerns the target human p110γ (catalytic subunit of PI3Kγ), co-expressed with mouse p84 or porcine p101 (human, UniProt P48736 1-1102). Kind of assay: SEC.
The target of assay [3] is porcine p110γ (for X-ray crystallography) (porcine, UniProt O02697 1-1102). Kind of assay: crystal structure.
porcine p110γ (for X-ray crystallography), sequence (O02697 whole entry): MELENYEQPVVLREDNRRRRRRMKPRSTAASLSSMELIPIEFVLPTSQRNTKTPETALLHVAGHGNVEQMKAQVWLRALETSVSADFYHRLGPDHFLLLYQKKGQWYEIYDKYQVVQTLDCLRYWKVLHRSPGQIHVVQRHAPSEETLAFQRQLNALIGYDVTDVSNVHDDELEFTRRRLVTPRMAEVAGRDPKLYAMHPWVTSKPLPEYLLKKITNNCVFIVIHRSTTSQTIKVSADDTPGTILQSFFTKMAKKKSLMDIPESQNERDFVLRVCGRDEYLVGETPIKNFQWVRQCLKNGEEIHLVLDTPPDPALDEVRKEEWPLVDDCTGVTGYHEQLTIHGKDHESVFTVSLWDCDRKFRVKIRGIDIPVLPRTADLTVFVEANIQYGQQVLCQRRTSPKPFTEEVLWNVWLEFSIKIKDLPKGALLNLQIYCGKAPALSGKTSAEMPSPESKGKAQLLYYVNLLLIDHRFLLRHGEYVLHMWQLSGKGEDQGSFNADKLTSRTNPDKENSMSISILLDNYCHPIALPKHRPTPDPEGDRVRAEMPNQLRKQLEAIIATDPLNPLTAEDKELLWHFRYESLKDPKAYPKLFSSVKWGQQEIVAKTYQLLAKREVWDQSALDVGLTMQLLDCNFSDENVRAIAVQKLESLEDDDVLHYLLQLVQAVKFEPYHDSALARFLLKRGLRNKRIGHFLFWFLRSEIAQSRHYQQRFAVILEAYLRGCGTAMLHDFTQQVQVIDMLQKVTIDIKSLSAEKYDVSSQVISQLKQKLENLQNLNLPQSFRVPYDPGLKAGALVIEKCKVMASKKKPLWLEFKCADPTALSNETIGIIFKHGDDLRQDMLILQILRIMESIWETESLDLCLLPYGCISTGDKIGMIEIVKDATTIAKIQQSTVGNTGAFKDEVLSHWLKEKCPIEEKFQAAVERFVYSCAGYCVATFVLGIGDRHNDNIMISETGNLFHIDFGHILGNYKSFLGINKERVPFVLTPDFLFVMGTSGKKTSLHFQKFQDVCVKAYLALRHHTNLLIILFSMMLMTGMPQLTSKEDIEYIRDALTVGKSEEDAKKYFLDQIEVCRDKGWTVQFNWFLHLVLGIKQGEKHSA

human p110γ (catalytic subunit of PI3Kγ), co-expressed with mouse p84 or porcine p101, sequence (P48736 whole entry): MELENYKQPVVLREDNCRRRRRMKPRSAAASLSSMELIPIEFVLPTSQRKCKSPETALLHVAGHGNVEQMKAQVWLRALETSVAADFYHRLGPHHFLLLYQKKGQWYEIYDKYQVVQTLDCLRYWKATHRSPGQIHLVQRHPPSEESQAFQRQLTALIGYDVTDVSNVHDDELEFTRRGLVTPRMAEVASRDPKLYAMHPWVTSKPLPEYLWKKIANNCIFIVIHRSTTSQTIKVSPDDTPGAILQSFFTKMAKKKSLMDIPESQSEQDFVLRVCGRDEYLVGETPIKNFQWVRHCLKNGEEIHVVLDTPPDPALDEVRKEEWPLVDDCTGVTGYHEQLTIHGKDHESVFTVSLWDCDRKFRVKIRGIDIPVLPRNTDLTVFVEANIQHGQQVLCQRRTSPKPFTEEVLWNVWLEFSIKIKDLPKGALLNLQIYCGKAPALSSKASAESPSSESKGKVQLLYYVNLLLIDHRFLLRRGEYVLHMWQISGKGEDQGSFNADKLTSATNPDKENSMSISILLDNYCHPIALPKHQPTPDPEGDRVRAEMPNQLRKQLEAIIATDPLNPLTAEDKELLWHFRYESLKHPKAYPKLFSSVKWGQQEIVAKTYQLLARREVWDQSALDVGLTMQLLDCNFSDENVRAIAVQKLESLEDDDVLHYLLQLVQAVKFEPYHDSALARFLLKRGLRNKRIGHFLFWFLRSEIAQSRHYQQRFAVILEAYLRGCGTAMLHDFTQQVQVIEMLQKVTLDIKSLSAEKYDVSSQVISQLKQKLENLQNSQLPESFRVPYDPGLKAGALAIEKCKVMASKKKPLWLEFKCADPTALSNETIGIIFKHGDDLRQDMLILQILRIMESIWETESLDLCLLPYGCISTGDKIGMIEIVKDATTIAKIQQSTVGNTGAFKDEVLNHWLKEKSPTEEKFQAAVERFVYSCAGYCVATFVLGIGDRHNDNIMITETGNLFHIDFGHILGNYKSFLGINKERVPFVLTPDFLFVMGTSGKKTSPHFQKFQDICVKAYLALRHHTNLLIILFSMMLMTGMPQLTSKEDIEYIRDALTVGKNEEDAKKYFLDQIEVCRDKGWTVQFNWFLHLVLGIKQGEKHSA
human p110γ, biGBac construct co-expressed with human p84 or human p101, sequence (P48736 whole entry): as above

B1: human p101 (regulatory subunit of PI3Kγ), co-expressed with human p110γ (natural protein)
chain: MQPGATTCTEDRIQHALERCLHGLSLSRRSTSWSAGLCLNCWSLQELVSRDPGHFLILLEQILQKTREVQEKGTYDLLTPLALLFYSTVLCTPHFPPDSDLLLKAASTYHRFLTWPVPYCSICQELLTFIDAELKAPGISYQRLVRAEQGLPIRSHRSSTVTVLLLNPVEVQAEFLAVANKLSTPGHSPHSAYTTLLLHAFQATFGAHCDVPGLHCRLQAKTLAELEDIFTETAEAQELASGIGDAAEARRWLRTKLQAVGEKAGFPGVLDTAKPGKLHTIPIPVARCYTYSWSQDSFDILQEILLKEQELLQPGILGDDEEEEEEEEEVEEDLETDGHCAERDSLLSTSSLASHDSTLSLASSQASGPALSRHLLTSFVSGLSDGMDSGYVEDSEESSSEWPWRRGSQERRGHRRPGQKFIRIYKLFKSTSQLVLRRDSRSLEGSSDTALPLRRAGSLCSPLDEPVSPPSRAQRSRSLPQPKLGTQLPSWLLAPASRPQRRRPFLSGDEDPKASTLRVVVFGSDRISGKVARAYSNLRRLENNRPLLTRFFKLQFFYVPVKRSHGTSPGACPPPRSQTPSPPTDSPRHASPGELGTTPWEESTNDISHYLGMLDPWYERNVLGLMHLPPEVLCQQSLKAEAQALEGSPTQLPILADMLLYYCRFAARPVLLQVYQTELTFITGEKTTEIFIHSLELGHSAATRAIKASGPGSKRLGIDGDREAVPLTLQIIYSKGAISGRSRWSNLEKVCTSVNLNKACRKQEELDSSMEALTLNLTEVVKRQNSKSKKGFNQISTSQIKVDKVQIIGSNSCPFAVCLDQDERKILQSVVRCEVSPCYKPEKSDLSSPPQTPPDLPAQAAPDLCSLLCLPIMTFSGALP
For B1, in assay [1], the binding result is recorded as “binds”.

B2: mouse p84 (regulatory subunit of PI3Kγ), co-expressed with human p110γ (natural protein)
chain: MESSDVELDFQRSVQAVLRELNTPNPALQSNQGMWRWSLHKKVERNPGKSSILVRILLRELEKAESEDGRRVIIPLLLTLMSVLTKATGIPEDLYHRAYTFCTRLLTLPAPYSTVALDCAIRLKTETAVPGTLYQRTVIAEQNLISELYPYQERVFLFVDPELVSASVCSALLLEIQAAQEQQTPEACMRHVVSHALQAALGEACHTGALNRKLQASSRRVLEYYFHAVVAAIEQVASEDSPSRLGHLEKMEEIYCSLLGPATTRRHCVGDLLQDRLPSIPLPSPYITFHLWTDQEQLWKELVLFLRPRSQLRLSADLDALDLQGFRLDRDLARVSTDSGIERDLPLGSDELPDPSSSEMERAALQRKGGIKKRVWPPDFFMPGSWDGPPGLHRRTGRPSGDGELLPGVSRVHTARVLVLGDDRMLGRLAQAYYRLRKRETKKFCLTPRLSLQLYYIPVLAPQVTGQDPEASRKPELGELASFLGRVDPWYESTVNTLCPAILKLAEMPPYLDTSRTVDPFILDVITYYVRMGTQPIYFQLYKVKIFTSLSHDPTEDIFLTELKVKIQDSKSPKEGSSPRRRGAAEGTGAELSMCYQKALLSHRPREVTVSLRATGLVLKAIPAGDTEVSGFFHCTSPNAASATDCSCLHVSVTEVVKSSNLAGRSFTTSTNTFRTSSIQVQSQDQRLLTLWLDKDGRRTFRDVVRFEVSPCPEPCSRTQKSKTSALNSHGQETEKNMAKPNSLLMPINTFSGIIQ
As to B2, the binding result in assay [2] is on record as “binds”.

B3: EE-tagged mouse p84 (for X-ray crystallography) (natural protein)
chain: MESSDVELDFQRSVQAVLRELNTPNPALQSNQGMWRWSLHKKVERNPGKSSILVRILLRELEKAESEDGRRVIIPLLLTLMSVLTKATGIPEDLYHRAYTFCTRLLTLPAPYSTVALDCAIRLKTETAVPGTLYQRTVIAEQNLISELYPYQERVFLFVDPELVSASVCSALLLEIQAAQEQQTPEACMRHVVSHALQAALGEACHTGALNRKLQASSRRVLEYYFHAVVAAIEQVASEDSPSRLGHLEKMEEIYCSLLGPATTRRHCVGDLLQDRLPSIPLPSPYITFHLWTDQEQLWKELVLFLRPRSQLRLSADLDALDLQGFRLDRDLARVSTDSGIERDLPLGSDELPDPSSSEMERAALQRKGGIKKRVWPPDFFMPGSWDGPPGLHRRTGRPSGDGELLPGVSRVHTARVLVLGDDRMLGRLAQAYYRLRKRETKKFCLTPRLSLQLYYIPVLAPQVTGQDPEASRKPELGELASFLGRVDPWYESTVNTLCPAILKLAEMPPYLDTSRTVDPFILDVITYYVRMGTQPIYFQLYKVKIFTSLSHDPTEDIFLTELKVKIQDSKSPKEGSSPRRRGAAEGTGAELSMCYQKALLSHRPREVTVSLRATGLVLKAIPAGDTEVSGFFHCTSPNAASATDCSCLHVSVTEVVKSSNLAGRSFTTSTNTFRTSSIQVQSQDQRLLTLWLDKDGRRTFRDVVRFEVSPCPEPCSRTQKSKTSALNSHGQETEKNMAKPNSLLMPINTFSGIIQ
As for B3, the binding result in assay [3] is “binds”.

B4: human p84 (regulatory subunit of PI3Kγ), co-expressed with human p110γ (natural protein)
chain: MESSDVELDLQRSVQAVLRELSTQAPALQSNQGMWRWSLHKKVERDPGKSPVLVRILLRELEKAESQDLRHVIIPLLHTVMYVLTKATGITEELYQRIYAFCTRLLTLPTPYCTVALDCAIRLKTEMAVPGTLYQRMVIAEQNLTNELYPYQERVFLFVDPELVSASVCSALLLEIEAAQAQQTPETCMRHVVSHALQAALGEACHAGALHRKLQASPRRTLEHYFHAVVAALEQMASEASPSREGHVERLEEIYCSLLGPAAGRCGGDLVQERPPSIPLPSPYITFHLWTGEEQLWKELVLFLRPRSQLRLSADLEVLDLQGLRPDRELARVSVLSTDSGIERDLPTGADELPAPGSPEMERAGLQRKGGIKKRAWPLDFLMPGSWDGPPGLHRRTGRPSGDGEMLPGVSRLHTARVLVLGDDRMLGRLAQAYHRLRKRETQKFCLTPRLSLQLYYIPVLAPEKPAASRQPELGELATFLGRVDPWYQSNVNTLCPAIHKLAEMPPSLDTSRTVDPFILDVITYYIRMGTQPIYFQIYTVKIFFSDLSQDPTEDIFLIELKVKIQDSKFPKDGFSPRRRGVAEGPGAELSLCYQKALLSHRPREVTVSLRATGLILKAIPASDTEVSGSSHCPLPAAPVTDHTCLNVNVTEVVKSSNLAGKSFSTVTNTFRTNNIQIQSRDQRLLTLSLDKDDQRTFRDVVRFEVAPCPEPCSGAQKSKAPWLNLHGQQEVEAIKAKPKPLLMPINTFSGIVQ
In the case of B4, the binding result in assay [1] is listed as “binds”.

B5: porcine p101 (regulatory subunit of PI3Kγ), co-expressed with human p110γ (natural protein)
chain: MQPGATTCTEDRIQHALERCLHGLSLSRRSTSWSAGLCLNCWSLQELVSRDPGHFLILLEQILQKTREVQEKGTYDLLAPLALLFYSTVLCTPHFPPDSDLLLKAARTYHRFLTWPVPYCSICQELLTFIDAELKAPGISYQRLVRAEQGLSTRSHRSSTVTVLLLNPVEVQAEFLDVADKLSTPGPSPHSAYITLLLHAFQATFGAHCDLSGLHRRLQSKTLAELEAIFTETAEAQELASGIGDAAEARQWLRTKLQAVGEKAGFPGVLDTAKPGKLRTIPIPVARCYTYSWNQDSFDILQEILLKEQELLQPEILDDEEDEDEEDEEEDLDADGHCAERDSVLSTGSAASHASTLSLASSQASGPTLSRQLLTSFVSGLSDGVDSGYMEDIEESAYERPRRPGGHERRGHRRPGQKFNRIYKLFKSTSQMVLRRDSRSLEGSPDSGPPLRRAGSLCSPLDSPTLPPSRAQGSRSLPQPKLSPQLPGWLLAPASRHQRRRPFLSGDEDPKASTLRVVVFGSDRISGKVVRAYSNLRRLENNRPLLTRFFKLQFFYVPVKRSRGTGTPTSPAPRSQTPPLPTDAPRHPGPAELGAAPWEESTNDISHYLGMLDPWYERNVLGLMHLPPEVLCQSLKAEPRPLEGSPAQLPILADMLLYYCRFAARPVLLQVYQTELTFITGEKTTEIFIHSLELGHSAATRAIKASGPGSKRLGIDGDREAVPLTLQIIYSKGAISGRSRWSNMEKLCTSVNLSKACRQQEELDSSTEALTLNLTEVVKRQTPKSKKGFNQISTSQIKVDKVQIIGSNSCPFAVCLDQDERKILQSVIRCEVSPCYKPEKSSLCPPPQRPSYPPAPATPDLCSLLCLPIMTFSGALP
B5: in assay [2], the binding result was “binds”.
